Legend:
[1] = biological target: BRCA1 tBRCT F1662R mutant (human) (UniProt P38398); assay: MST
[2] = biological target: BRCA1 tBRCT L1701K mutant (human) (UniProt P38398); assay: MST

Kd [1]: 0.86 µM
Kd [2]: 1.96 µM
Substance: BACH1 phosphopeptide

Reference: doi:10.1101/555623
